Experiment [1] deals with T1, Human CD3ε stalk-Fc(knob)-Avi/CD3δ stalk-Fc(hole) (human).
T1 construct: Heterodimeric Fc fusion; also called human CD3ε/δ; Human CD3 epsilon stalk-Fc(knob)-Avi
Put plainly: SPR, TCB format, monovalent binding. The protocol:
The experimental setup is schematically depicted in FIG. 3.
The dissociation was monitored for 800 s.
(§1) Kinetic constants were derived using the Biacore T200 Evaluation Software (GE Healthcare Life Sciences), to fit rate equations for 1:1 Langmuir binding by numerical integration. The half-life (t_{1/2}) of the interaction was calculated using the formula t_{1/2}=ln 2/koff.

Experiment [2] addresses T1, Human CD3ε stalk-Fc(knob)-Avi/CD3δ …. The experiment in a line: SPR, biotinylated human CD3ε/δ on SA chip, TCB at 2 µg/ml; response normalised to anti-huIgG capture and referenced to the unstressed sample; after 2 weeks at pH 6.0/40 °C. The protocol: (§2) In order to assess the effect of the deamidation site removal and its effect on the stability of the antibodies, the optimized anti-CD3 antibodies (in TCB format) were incubated for 14 days at 37° C., pH 7.4 and at 40° C., pH 6 and further analyzed by SPR for their binding capability to human CD3ε/δ. Samples stored at −80° C. pH 6 were used as reference. The reference samples and the samples stressed at 40° C. were in 20 mM His, 140 mM NaCl, pH 6.0, and the samples stressed at 37° C. in PBS, pH 7.4, all at a concentration of 1.0 mg/ml. After the stress period (14 days) samples in PBS were dialyzed back to 20 mM His, 140 mM NaCl, pH 6.0 for further analysis.
(§3) All SPR experiments were performed on a Biacore T200 instrument (GE Healthcare) at 25° C. with HBS-P+ (10 mM HEPES, 150 mM NaCl pH 7.4, 0.05% Surfactant P20) as running and dilution buffer. Biotinylated human CD3ε/δ (see Example 3, SEQ ID NOs 41 and 42) as well as biotinylated anti-huIgG (Capture Select, Thermo Scientific, #7103262100) were immobilized on a Series S Sensor Chip SA (GE Healthcare, #29104992), resulting in surface densities of at least 1000 resonance units (RU). Anti-CD3 antibodies with a concentration of 2 μg/ml were injected for 30 s at a flow rate of 5 μl/min, and dissociation was monitored for 120 s. The surface was regenerated by injecting 10 mM glycine pH 1.5 for 60 s. Bulk refractive index differences were corrected by subtracting blank injections and by subtracting the response obtained from a blank control flow cell. For evaluation, the binding response 5 seconds after injection end was taken. To normalize the binding signal, the CD3 binding was divided by the anti-huIgG response (the signal (RU) obtained upon capture of the CD3 antibody on the immobilized anti-huIgG antibody). The relative binding activity was calculated by referencing each temperature stressed sample to the corresponding, non-stressed sample.

The target is the same in experiment [3]. The experiment in a line: SPR, biotinylated human CD3ε/δ on SA chip, TCB at 2 µg/ml; response normalised to anti-huIgG capture and referenced to the unstressed sample; after 2 weeks at pH 7.4/37 °C. As to the method: as §2, §3
Experiment [4] has the same target. Put plainly: SPR, biotinylated human CD3ε/δ on SA chip, monovalent IgG; response normalised to anti-huIgG capture and referenced to the unstressed sample; after 2 weeks at pH 6.0/40 °C. As to the method: as §3
Experiment [5] has the same target. Put plainly: SPR, Biacore T200, 25 °C; monovalent IgG captured by anti-PG antibody on C1 chip, CD3ε/δ-Fc as analyte; 1:1 Langmuir fit; triplicates; footnote: values may not be fully reliable, bad fit quality. As to the method: as §1
(§4) To analyze the interaction to CD3, IgG molecules were captured for 240 s at 50 nM with a flow rate of 5 μl/min. Human and cynomolgus CD3ε stalk-Fc(knob)-Avi/CD3δ-stalk-Fc(hole) were passed at a concentration of 0.061-250 nM with a flow rate of 30 μl/min through the flow cells for 300 s. The dissociation was monitored for 800 s.

For experiment [6], the target named is T2, Cynomolgus CD3ε stalk-Fc(knob)-Avi/CD3δ stalk-Fc(hole) (cynomolgus).
T2 construct: Heterodimeric Fc fusion; also called cynomolgus CD3ε/δ
The experiment is described as above. The protocol:
as §1, §4

Experiment [7] concerns the target T1, Human CD3ε stalk-Fc(knob)-Avi/CD3δ …. Put plainly: SPR, biotinylated human CD3ε/δ on SA chip, monovalent IgG; response normalised to anti-huIgG capture and referenced to the unstressed sample; after 2 weeks at pH 7.4/37 °C. As to the method: as §3
The target is the same in experiment [8]. The experiment in a line: SPR, Biacore T200, 25 °C; monovalent IgG captured by anti-PG antibody on C1 chip, CD3ε/δ-Fc as analyte; triplicates; footnote: values may not be fully reliable, bad fit quality. The protocol: as §1, §4
For experiment [9], the target named is T2, Cynomolgus CD3ε stalk-Fc(knob)-Avi/CD3δ …. Described as above. As to the method:
as §1, §4

Experimental findings from patent publication US20230287145A1 (Hoffmann-La Roche, published 2023) are described below.

T2 sequence (chain, as listed by the source mutant limits assumed, chain 1 of 2): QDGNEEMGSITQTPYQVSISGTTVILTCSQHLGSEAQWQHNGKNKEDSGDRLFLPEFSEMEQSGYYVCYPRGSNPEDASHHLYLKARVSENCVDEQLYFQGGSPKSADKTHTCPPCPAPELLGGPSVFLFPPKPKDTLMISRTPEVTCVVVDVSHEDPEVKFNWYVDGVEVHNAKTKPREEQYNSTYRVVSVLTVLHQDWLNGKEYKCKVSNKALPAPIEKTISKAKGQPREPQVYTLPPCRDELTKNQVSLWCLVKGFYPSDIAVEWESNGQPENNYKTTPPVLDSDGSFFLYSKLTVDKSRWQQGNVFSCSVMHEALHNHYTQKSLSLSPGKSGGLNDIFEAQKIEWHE
T2 sequence (chain, as listed by the source mutant limits assumed, chain 2 of 2): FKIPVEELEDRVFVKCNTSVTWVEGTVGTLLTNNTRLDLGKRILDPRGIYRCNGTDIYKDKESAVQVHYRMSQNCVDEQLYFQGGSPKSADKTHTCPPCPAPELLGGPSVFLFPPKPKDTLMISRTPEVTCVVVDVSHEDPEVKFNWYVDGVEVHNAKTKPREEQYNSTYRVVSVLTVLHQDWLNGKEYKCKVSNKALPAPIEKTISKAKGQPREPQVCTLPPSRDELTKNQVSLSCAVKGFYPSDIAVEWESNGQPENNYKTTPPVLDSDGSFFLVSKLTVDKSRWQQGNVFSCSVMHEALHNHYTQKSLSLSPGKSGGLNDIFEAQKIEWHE

B1: TYRP1 TCB containing optimized anti-CD3 antibody clone P033.078 (bispecific antibody, human IgG1, kappa, L234A L235A)
heavy 1: not shown
heavy 2: QVQLVQSGAEVKKPGASVKVSCKASGFNIKDYFLHWVRQAPGQGLEWMGWINPDNGNTVYAQKFQGRVTMTADTSTSTVYMELSSLRSEDTAVYYCTRRDYTYEKAALDYWGQGTLVTVSSASTKGPSVFPLAPSSKSTSGGTAALGCLVEDYFPEPVTVSWNSGALTSGVHTFPAVLQSSGLYSLSSVVTVPSSSLGTQTYICNVNHKPSNTKVDEKVEPKSCDKTHTCPPCPAPEAAGGPSVFLFPPKPKDTLMISRTPEVTCVVVDVSHEDPEVKFNWYVDGVEVHNAKTKPREEQYNSTYRVVSVLTVLHQDWLNGKEYKCKVSNKALGAPIEKTISKAKGQPREPQVCTLPPSRDELTKNQVSLSCAVKGFYPSDIAVEWESNGQPENNYKTTPPVLDSDGSFFLVSKLTVDKSRWQQGNVFSCSVMHEALHNHYTQKSLSLSP
light 1: DIQMTQSPSSLSASVGDRVTITCRASGNIYNYLAWYQQKPGKVPKLLIYDAKTLADGVPSRFSGSGSGTDFTLTISSLQPEDVATYYCQHFWSLPFTFGQGTKLEIKRTVAAPSVFIFPPSDRKLKSGTASVVCLLNNFYPREAKVQWKVDNALQSGNSQESVTEQDSKDSTYSLSSTLTLSKADYEKHKVYACEVTHQGLSSPVTKSFNRGEC
light 2: EVQLLESGGGLVQPGGSLRLSCAASGFTFESYAMNWVRQAPGKGLEWVSRIRSKYNEYATYYADSVKGRFTISRDDSKNTLYLQMNSLRAEDTAVYYCVRASNFPSSFVSYFGYWGQGTLVTVSSASVAAPSVFIFPPSDEQLKSGTASVVCLLNNFYPREAKVQWKVDNALQSGNSQESVTEQDSKDSTYSLSSTLTLSKADYEKHKVYACEVTHQGLSSPVTKSFNRGEC
notes: 2+1 IgG CrossFab, inverted, with charge modifications; knob-into-hole, P329G L234A L235A; also called CD3opt (P033.078); P033.078 in TCB format
As to B1, the “fold of binding half-life over CD3orig” value in experiment [1] was not above 6 fold. In addition, the “binding activity [%]” value in experiment [2] and in experiment [3] was 99% in each case.

B2: Anti-CD3 antibody clone P004.042 in monovalent human IgG1 format (antibody, V domains shown)
VH: EVQLLESGGGLVQPGGSLRLSCAASGFQFDNYAMNWVRQAPGKGLEWVSRIRTKYNEYATYYADSVKGRFTISRDDSKNTLYLQMNSLRAEDTAVYYCVRASNFPQSYVSYFGYWGQGTLVTVSS
VL: QAVVTQEPSLTVSPGGTVTLTCGSSTGAVTTSNYANWVQEKPGQAFRGLIGGTNKRAPGTPARFSGSLLGGKAALTLSGAQPEDEAEYYCALWYSNLWVFGGGTKLTVL
notes: Monovalent human IgG1 with crossed VH and VL domains; knob-into-hole; P329G L234A L235A; also called P004.042 (monovalent IgG)
For the molecule B2, the “binding activity [%]” value was 101% in experiment [4] and 98% in [7]. The Kd in [5] turned out to be 1.36 nM; in experiment [6], 0.439 nM. Further, the koff in experiment [5] is 0.00852 s⁻¹; in experiment [6], 0.00809 s⁻¹. The kon in [5] turned out to be 6.28e+06 M⁻¹ s⁻¹; in experiment [6], 1.85e+07 M⁻¹ s⁻¹. Besides, the values for the t1/2 in [8] and in experiment [9] were 1.36 min and 1.43 min, respectively.
